From patent US9527898B2, “Oxyntomodulin derivatives and pharmaceutical composition for treating obesity comprising the same” (Hanmi Science Co., Ltd., dated 2016)
Non-standard residues stand in square brackets, D forms with d. No end group written: not given here. *: point of attachment. Acetyl(2-(4-imidazolyl)) = O=C(Cc1c[nH]cn1)*; Aib = CC(C)(N)C(=O)O

How the values were obtained:
human glucagon receptor = human glucagon receptor (human, UniProt P47871); experiment: cell-based or functional assay
human GLP-1 receptor = human GLP-1 receptor (human, UniProt P43220); experiment: cell-based or functional assay

{Acetyl(2-(4-imidazolyl))}-HGEGTFTSDLSRQMEEEAVRLFIEWAAHSQGTFTSDYSKYLD [oxyntomodulin derivative of SEQ ID NO. 6]
EC50 (nM), cAMP, CHO/GCGR (human glucagon receptor): > 1000 nM

B1: oxyntomodulin derivative of SEQ ID NO. 17 (peptide)
peptide: HSQGTFTSDYSRYLDEEAVRLFIEWIRNTKRNRNNIA
modifications: not fully specified (residue 1, N-terminus); also: N-terminal CA (4-imidazoacetyl), whether it replaces His1 not given here
EC50 (nM), cAMP, CHO/GCGR (human glucagon receptor): > 1000 nM

H[Aib]QGTFTSDYSKYLDEKRAKEFVQWLMNT [oxyntomodulin derivative of SEQ ID NO. 28]
EC50 (nM), cAMP, CHO/GCGR (human glucagon receptor): 0.3 nM

H[Aib]QGTFTSDYSKYLDEKRAKEFVQWLMNTC (also: possible ring formation not assignable from text) [oxyntomodulin derivative of SEQ ID NO. 25]
EC50 (nM), cAMP, CHO/GLP-1R (human GLP-1 receptor): 1.9 nM

H[Aib]QGTFTSDYSKYLDEKRAKEFVQWLMNTC (also: possible ring formation not assignable from text) [oxyntomodulin derivative of SEQ ID NO. 24]
EC50 (nM), cAMP, CHO/GLP-1R (human GLP-1 receptor): 1.43 nM

HSQGTFTSDYSRYLDEEAVELFIEWLMNTK [oxyntomodulin derivative of SEQ ID NO. 13]
EC50 (nM), cAMP, CHO/GLP-1R (human GLP-1 receptor): > 1000 nM
EC50 (nM), cAMP, CHO/GCGR (human glucagon receptor): > 1000 nM

Y[Aib]QGTFTSDYSKYLDEKRAKEFVQWLMNTC [oxyntomodulin derivative of SEQ ID NO. 31]
EC50 (nM), cAMP, CHO/GLP-1R (human GLP-1 receptor): 12.5 nM
EC50 (nM), cAMP, CHO/GCGR (human glucagon receptor): 1 nM

B2: oxyntomodulin derivative of SEQ ID NO. 11 (peptide)
peptide: HGEGTFTSDLSRQMEEEAVRLFIEWAAHSQGTFTSDYSRYLDK
modifications: not fully specified (residue 1, N-terminus); also: N-terminal CA (4-imidazoacetyl), whether it replaces His1 not given here
EC50 (nM), cAMP, CHO/GLP-1R (human GLP-1 receptor): > 1000 nM
EC50 (nM), cAMP, CHO/GCGR (human glucagon receptor): > 1000 nM

H[Aib]QGTFTSDYAKYLDEKRAKEFVQWLMNTC [oxyntomodulin derivative of SEQ ID NO. 30]
EC50 (nM), cAMP, CHO/GLP-1R (human GLP-1 receptor): 2.2 nM
EC50 (nM), cAMP, CHO/GCGR (human glucagon receptor): 80.2 nM

H[Aib]QGTFTSDYSKYLDEKRAKEFVCWLMNT [oxyntomodulin derivative of SEQ ID NO. 23]
EC50 (nM), cAMP, CHO/GLP-1R (human GLP-1 receptor): 2.46 nM
EC50 (nM), cAMP, CHO/GCGR (human glucagon receptor): 5.8 nM
